PMC2199314 (The Journal of Cell Biology, 2001)

Molecular target: taxol-stabilized bovine brain microtubules (bovine, UniProt Q6B856 1-445)

Kd: ~500 nM
B1: Escherichia coli–purified Dam1p (natural protein, S. cerevisiae, UniProt P53267 1-343, looked up)
chain: MSEDKAKLGTTRSATEYRLSIGSAPTSRRSSMGESSSLMKFADQEGLTSSVGEYNENTIQQLLLPKIRELSDSIITLDSNFTRLNFIHESLADLNESLGSLLYGIMSNSWCVEFSQAPHDIQDDLIAIKQLKSLEDEKNNLVMELSNMERGIKRKKDEQGENDLAKASQNKQFNQPLFPSSQVRKYRSYDNRDKRKPSKIGNNLQVENEEDYEDDTSSEASFVLNPTNIGMSKSSQGHVTKTTRLNNNTNSKLRRKSILHTIRNSIASGADLPIENDNVVNLGDLHPNNRISLGSGAARVVNGPVTKNRNSMFSGRAERKPTESRHSVAKKTEKKINTRPPFR
